Test [1] deals with BSA cross-linked with A-peak (A-peak-BSA) (bovine) (UniProt P02769). Put plainly: SPR, Biacore T200; A-peak-BSA amine-coupled to a CM5 chip (72 RU), PB-1 at 0.1953 to 50 nM, 1:1 binding model. On the technique in general: In SPR one partner is held on a chip, and binding of the other changes the refractive index at the surface.
For test [2] the target is unchanged. The test can be described thus: cross-competition ELISA: unlabeled antibody varied (0.049 to 50 µg/mL), HRP-labeled SJ-5 as competitor on immobilised A-peak-BSA, absorbance 450-650 nm. A general note: In an ELISA, binding on a coated surface is turned into a signal by an enzyme label.
The target of test [3] is BSA modified with the novel structure derived from Glycer-AGEs (GAL13-BSA) (bovine) (UniProt P02769). Put plainly: SPR, Biacore T200; GAL13-BSA amine-coupled to a CM5 chip.
Test [4] concerns the target Bovine serum albumin containing AGEs derived from glyceraldehyde (Glycer-AGEs-BSA) (bovine) (UniProt P02769). The test can be described thus: SPR, Biacore T200; Glycer-AGEs-BSA amine-coupled to a CM5 chip, antibody at 0 to 400 nM.
In test [5] the target is BSA modified with the novel structure derived from Glycer-AGEs (GAL13-BSA) (bovine) (UniProt P02769). Put plainly: direct ELISA: POD-labeled antibody on immobilised GAL13-BSA (1 µg/mL), absorbance at 490 nm.

B1: novel monoclonal antibody PB-1 (antibody, V domains shown)
VH: EVRLQQSGPELVKPGTSVKISCKASGYSFTGYYMHWVKQSPVKSLEWIGRIIPYNGATSYNQNFKDKASLTVDKSSRTAYMDLHSLTSEDSAVYYCARSRYYGRAPYYFDYWGQGTTLTVSS
VL: DVVVTQTPLSLPVSLGDQASISCRSSQSIVHSNGNTYLEWYLQKPGQSPKLLIYKVSNRFSGVPDRISGSGSGTDFTLKISRVEAGDLGVYSCFQGSHVPFTFGSGTKLEIK
In the case of B1, in test [1], the Kd (as a rule, the constant that tells how readily two partners part at equilibrium) turned out to be 4.15 nM. The IC50 (read off the curve) in test [2] is 2 µg/mL.

B2: novel monoclonal antibody SJ-5 (antibody, V domains shown)
VH: EVMLVESGGRLVKPGGSLKLSCAASGFTFSSYGMSWVRQTPEKRLEWVATISGGGSYTYYPDSVKGRFTISRDNVKNNLYLQMSSLRSEDTALYYCARRGAYGDYGWFAYWGQGTLVTVSA
VL: DIVLTQSPATLSVTPGDSVSLSCRASQSINNNLHWYQQKSHESPRLLIKCASQSISGIPSRFSGSGSGTDFTLSINSVETEDFGMYFCQQSNSWPLTFGAGTKLELK
For the molecule B2, the Kd turned out to be 87.5 nM in test [3] and 57.4 nM in test [4]. In addition, the EC50 (read off the curve) – broadly, the concentration needed to bring the measured effect to its halfway point – in test [5] worked out at 0.3 µg/mL.

Source of the values: patent US20210221879A1.
